{"source": "paper PMC3506622", "key": {"[1]": {"target": "bcPadR1, PadR-like transcriptional regulator from Bacillus cereus ATCC 14579 (product of gene locus BC4206) (Bacillus cereus ATCC 14579)", "experiment": "SEC; analytical gel filtration, Superdex 200 PC 3.2/30; 20 mM Tris-HCl pH 8.0, 200 mM NaCl, 1 mM EDTA, 1 mM dithiothreitol; apparent molecular weight against five marker proteins"}, "[2]": {"target": "bcPadR2, PadR-like transcriptional regulator from Bacillus cereus ATCC 10987 (product of gene locus BCE3449) (Bacillus cereus ATCC 10987)", "experiment": "SEC; analytical gel filtration, Superdex 200 PC 3.2/30; 20 mM Tris-HCl pH 8.0, 200 mM NaCl, 1 mM EDTA, 1 mM dithiothreitol; apparent molecular weight against five marker proteins"}}}
{"substance": "bcPadR1, PadR-like transcriptional regulator from Bacillus cereus ATCC 14579 (product of gene locus BC4206) (natural protein)", "values": [{"measurement": "stoichiometry N", "setting": "[1]", "value": 2}]}
{"substance": "bcPadR2, PadR-like transcriptional regulator from Bacillus cereus ATCC 10987 (product of gene locus BCE3449) (natural protein)", "values": [{"measurement": "stoichiometry N", "setting": "[2]", "value": 2}]}
